Data taken from US20090170069A1 (ARIZONA BOARD OF REGENTS ON BEHALF OF THE UNIVERSITY OF …, published 2009).

Target: T1, Vascular Endothelial Growth Factor (VEGF), His-tagged, refolded dimer (UniProt P15692-4 37-135)
T1 sequence (looked up): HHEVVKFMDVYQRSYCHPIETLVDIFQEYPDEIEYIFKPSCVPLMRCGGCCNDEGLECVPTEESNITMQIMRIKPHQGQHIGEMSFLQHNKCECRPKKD

B1: Flt-1 domain 2 fused to the N-terminal half of firefly luciferase (residues 2-416) (receptor, UniProt P17948 129-229, looked up, not shown: small tags and cut ends)
chain: SDTGRPFVEMYSEIPEIIHMTEGRELVIPCRVTSPNITVTLKKFPLDTLIPDGKRIIWDSRKGFIISNATYKEIGLLTCEATVNGHLYKTNYLTHRQTNTIEDAKNIKKGPAPFYPLEDGTAGEQLHKAMKRYALVPGTIAFTDAHIEVNITYAEYFEMSVRLAEAMKRYGLNTNHRIVVCSENSLQFFMPVLGALFIGVAVAPANDIYNERELLNSMNISQPTVVFVSKKGLQKILNVQKKLPIIQKIIIMDSKTDYQGFQSMYTFVTSHLPPGFNEYDFVPESFDRDKTIALIMNSSGSTGLPKGVALPHRTACVRFSHARDPIFGNQIIPDTAILSVVPFHHGFGMFTTLGYLICGFRVVLMYRFEEELFLRSLQDYKIQSALLVPTLFSFFAKSTLIDKYDLSNLHEIASGGAPLSKEVGEAVAKRFHLPGIRQGYGLTETTSAILITPEGDDKPGAVGKVVPFFEAKVVDLDTGKTLGVNQRGELCVRGPMIMSGYVNNPEATNALIDKDG
  fold increase in luminescence: 15 fold
